Values quoted from earlier work as cited in PMC4962041.

Biological target: ubiquitin (UniProt P0CG48)

Chain of yDdi1 UBL (P40087 1-80): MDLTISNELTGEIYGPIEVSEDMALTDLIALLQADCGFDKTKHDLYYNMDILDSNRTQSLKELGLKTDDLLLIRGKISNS

For yDdi1 UBL (from UniProt P40087), the Kd is given as 45 µM.
